Assay results taken from patent publication US20250262210A1 (TRUSTEES OF COLUMBIA UNIVERSITY IN THE CITY OF NEW YORK, published 2025).

How the values were obtained:
SEC24D = target: T1, SEC24D (human, UniProt O94855 1-1032, limits assumed); experiment: IP/MS, LZTR1 R810W-FLAG, U87
T1 sequence (looked up): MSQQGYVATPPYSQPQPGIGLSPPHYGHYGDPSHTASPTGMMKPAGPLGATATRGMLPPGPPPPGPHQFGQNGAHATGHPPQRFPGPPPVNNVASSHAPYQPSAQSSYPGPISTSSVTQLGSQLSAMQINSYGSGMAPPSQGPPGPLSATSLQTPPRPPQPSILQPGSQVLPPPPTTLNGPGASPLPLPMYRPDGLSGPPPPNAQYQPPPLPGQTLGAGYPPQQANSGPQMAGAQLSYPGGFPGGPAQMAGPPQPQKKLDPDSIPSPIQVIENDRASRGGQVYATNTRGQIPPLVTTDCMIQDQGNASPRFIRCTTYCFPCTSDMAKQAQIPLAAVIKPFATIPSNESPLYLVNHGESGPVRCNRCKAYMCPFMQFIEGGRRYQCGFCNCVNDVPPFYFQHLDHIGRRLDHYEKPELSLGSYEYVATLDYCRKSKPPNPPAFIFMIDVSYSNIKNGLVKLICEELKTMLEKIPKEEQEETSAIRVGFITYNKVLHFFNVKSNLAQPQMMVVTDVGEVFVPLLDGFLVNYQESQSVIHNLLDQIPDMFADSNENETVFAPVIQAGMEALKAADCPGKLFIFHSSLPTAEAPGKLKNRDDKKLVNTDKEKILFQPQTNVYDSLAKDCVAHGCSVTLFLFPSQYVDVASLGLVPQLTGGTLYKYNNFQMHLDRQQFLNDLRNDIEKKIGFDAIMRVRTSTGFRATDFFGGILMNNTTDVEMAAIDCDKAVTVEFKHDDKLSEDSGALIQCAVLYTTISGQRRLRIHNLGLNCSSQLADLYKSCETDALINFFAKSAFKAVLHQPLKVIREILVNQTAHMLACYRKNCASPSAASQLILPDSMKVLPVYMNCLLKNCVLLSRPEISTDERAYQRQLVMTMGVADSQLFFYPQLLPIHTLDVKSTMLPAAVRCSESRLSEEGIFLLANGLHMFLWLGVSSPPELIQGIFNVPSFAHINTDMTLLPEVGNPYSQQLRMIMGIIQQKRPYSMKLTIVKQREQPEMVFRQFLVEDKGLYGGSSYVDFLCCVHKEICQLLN
Outline: (§1)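 Read-out: spectral counts from LC-MS/MS (Orbitrap Fusion) after MaxQuant identification. Variable modifications were Met oxidation, protein N-terminal acetylation and N/Q deamidation.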

ATAD2 = target: T2, ATAD2 (human, UniProt Q6PL18 1-1390, limits assumed); experiment: IP/MS, LZTR1 R810W-FLAG, U87
T2 sequence (looked up): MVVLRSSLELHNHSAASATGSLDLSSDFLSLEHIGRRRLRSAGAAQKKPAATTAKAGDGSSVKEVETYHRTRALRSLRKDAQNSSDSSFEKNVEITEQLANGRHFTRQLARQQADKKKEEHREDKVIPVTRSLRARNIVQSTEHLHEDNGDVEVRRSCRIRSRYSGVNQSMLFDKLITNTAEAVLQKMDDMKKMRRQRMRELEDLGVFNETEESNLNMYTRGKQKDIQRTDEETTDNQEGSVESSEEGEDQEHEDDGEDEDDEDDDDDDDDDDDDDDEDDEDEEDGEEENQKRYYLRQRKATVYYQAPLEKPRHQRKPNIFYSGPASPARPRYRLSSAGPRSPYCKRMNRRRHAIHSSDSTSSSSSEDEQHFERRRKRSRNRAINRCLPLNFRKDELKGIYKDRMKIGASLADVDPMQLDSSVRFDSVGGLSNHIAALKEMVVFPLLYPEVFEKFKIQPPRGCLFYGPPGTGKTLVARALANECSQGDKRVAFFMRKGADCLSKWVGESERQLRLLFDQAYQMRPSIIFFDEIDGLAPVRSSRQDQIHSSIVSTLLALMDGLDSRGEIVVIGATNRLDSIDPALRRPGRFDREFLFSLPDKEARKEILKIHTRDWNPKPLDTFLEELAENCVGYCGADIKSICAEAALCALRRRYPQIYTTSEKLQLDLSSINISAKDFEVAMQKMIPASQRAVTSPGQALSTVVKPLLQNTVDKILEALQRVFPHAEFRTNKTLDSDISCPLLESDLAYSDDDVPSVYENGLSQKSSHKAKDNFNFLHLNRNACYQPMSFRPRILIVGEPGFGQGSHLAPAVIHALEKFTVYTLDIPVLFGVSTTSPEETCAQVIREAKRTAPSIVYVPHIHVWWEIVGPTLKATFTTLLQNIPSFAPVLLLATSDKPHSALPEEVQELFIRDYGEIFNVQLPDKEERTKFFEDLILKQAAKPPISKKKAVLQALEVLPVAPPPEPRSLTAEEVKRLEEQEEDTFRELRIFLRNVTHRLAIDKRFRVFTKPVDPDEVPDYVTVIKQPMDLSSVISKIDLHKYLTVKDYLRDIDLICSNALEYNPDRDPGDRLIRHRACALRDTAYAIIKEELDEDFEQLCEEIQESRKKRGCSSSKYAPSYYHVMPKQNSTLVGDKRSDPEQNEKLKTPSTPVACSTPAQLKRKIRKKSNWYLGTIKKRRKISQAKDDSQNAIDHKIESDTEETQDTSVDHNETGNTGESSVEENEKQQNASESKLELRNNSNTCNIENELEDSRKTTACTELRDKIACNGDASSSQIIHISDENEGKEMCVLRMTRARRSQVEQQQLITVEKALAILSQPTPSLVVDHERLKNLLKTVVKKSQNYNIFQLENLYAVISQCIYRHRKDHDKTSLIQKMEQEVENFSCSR
Outline: as §1

B1: LZTR1 R810W-FLAG (other, human, UniProt Q8N653 1-840, looked up)
chain: MAGPGSTGGQIGAAALAGGARSKVAPSVDFDHSCSDSVEYLTLNFGPFETVHRWRRLPPCDEFVGARRSKHTVVAYKDAIYVFGGDNGKTMLNDLLRFDVKDCSWCRAFTTGTPPAPRYHHSAVVYGSSMFVFGGYTGDIYSNSNLKNKNDLFEYKFATGQWTEWKIEGRLPVARSAHGATVYSDKLWIFAGYDGNARLNDMWTIGLQDRELTCWEEVAQSGEIPPSCCNFPVAVCRDKMFVFSGQSGAKITNNLFQFEFKDKTWTRIPTEHLLRGSPPPPQRRYGHTMVAFDRHLYVFGGAADNTLPNELHCYDVDFQTWEVVQPSSDSEVGGAEVPERACASEEVPTLTYEERVGFKKSRDVFGLDFGTTSAKQPTQPASELPSGRLFHAAAVISDAMYIFGGTVDNNIRSGEMYRFQFSCYPKCTLHEDYGRLWESRQFCDVEFVLGEKEECVQGHVAIVTARSRWLRRKITQARERLAQKLEQEAAPVPREAPGVAAGGARPPLLHVAIREAEARPFEVLMQFLYTDKIKYPRKGHVEDVLLIMDVYKLALSFQLCRLEQLCRQYIEASVDLQNVLVVCESAARLQLSQLKEHCLNFVVKESHFNQVIMMKEFERLSSPLIVEIVRRKQQPPPRTPLDQPVDIGTSLIQDMKAYLEGAGAEFCDITLLLDGHPRPAHKAILAARSSYFEAMFRSFMPEDGQVNISIGEMVPSRQAFESMLRYIYYGEVNMPPEDSLYLFAAPYYYGFYNNRLQAYCKQNLEMNVTVQNVLQILEAADKTQALDMKRHCLHIIVHQFTKVSKLPTLWSLSQQLLLDIIDSLASHISDKQCAELGADI
notes: Stably expressed in U87 cells by lentivirus; also called LZTR1-FLAG-R810W; LZTR1 RW; not shown: FLAG tag
binding result (SEC24D): binds | binding result (ATAD2): binds
